Target: Integrin alpha1beta1 (Homo sapiens, UniProt P56199)
Test: MST

Sequence of Integrin alpha1beta1 (P56199 29-1141, chain 1 of 2): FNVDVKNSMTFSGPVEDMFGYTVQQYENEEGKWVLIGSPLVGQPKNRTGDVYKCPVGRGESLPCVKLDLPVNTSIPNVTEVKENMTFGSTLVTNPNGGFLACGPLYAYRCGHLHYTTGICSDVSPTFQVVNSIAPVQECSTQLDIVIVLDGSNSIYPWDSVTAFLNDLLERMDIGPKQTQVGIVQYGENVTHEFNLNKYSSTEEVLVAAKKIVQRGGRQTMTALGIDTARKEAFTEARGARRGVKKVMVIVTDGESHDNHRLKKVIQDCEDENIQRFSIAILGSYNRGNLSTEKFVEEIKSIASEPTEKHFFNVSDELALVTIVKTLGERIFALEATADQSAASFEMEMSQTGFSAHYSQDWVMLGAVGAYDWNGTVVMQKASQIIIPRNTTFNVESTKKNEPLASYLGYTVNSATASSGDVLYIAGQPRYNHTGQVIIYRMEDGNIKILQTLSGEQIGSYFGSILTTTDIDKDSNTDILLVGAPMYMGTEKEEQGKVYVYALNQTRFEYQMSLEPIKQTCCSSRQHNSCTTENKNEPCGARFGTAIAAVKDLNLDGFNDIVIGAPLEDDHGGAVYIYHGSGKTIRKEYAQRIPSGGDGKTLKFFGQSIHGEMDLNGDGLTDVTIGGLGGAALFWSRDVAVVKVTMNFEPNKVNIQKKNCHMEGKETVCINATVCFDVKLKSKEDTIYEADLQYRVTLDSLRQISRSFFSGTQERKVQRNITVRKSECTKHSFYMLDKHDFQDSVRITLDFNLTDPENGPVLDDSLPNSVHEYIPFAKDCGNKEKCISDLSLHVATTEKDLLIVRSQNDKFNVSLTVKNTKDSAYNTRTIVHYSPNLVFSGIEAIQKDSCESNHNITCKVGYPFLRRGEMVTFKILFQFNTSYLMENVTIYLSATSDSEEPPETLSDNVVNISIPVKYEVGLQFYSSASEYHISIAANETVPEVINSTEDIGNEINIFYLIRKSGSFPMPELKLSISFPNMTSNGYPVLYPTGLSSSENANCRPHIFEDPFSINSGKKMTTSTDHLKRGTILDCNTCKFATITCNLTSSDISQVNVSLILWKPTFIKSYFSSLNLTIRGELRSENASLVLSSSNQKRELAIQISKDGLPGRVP
Sequence of Integrin alpha1beta1 (chain, as listed by the source, chain 2 of 2): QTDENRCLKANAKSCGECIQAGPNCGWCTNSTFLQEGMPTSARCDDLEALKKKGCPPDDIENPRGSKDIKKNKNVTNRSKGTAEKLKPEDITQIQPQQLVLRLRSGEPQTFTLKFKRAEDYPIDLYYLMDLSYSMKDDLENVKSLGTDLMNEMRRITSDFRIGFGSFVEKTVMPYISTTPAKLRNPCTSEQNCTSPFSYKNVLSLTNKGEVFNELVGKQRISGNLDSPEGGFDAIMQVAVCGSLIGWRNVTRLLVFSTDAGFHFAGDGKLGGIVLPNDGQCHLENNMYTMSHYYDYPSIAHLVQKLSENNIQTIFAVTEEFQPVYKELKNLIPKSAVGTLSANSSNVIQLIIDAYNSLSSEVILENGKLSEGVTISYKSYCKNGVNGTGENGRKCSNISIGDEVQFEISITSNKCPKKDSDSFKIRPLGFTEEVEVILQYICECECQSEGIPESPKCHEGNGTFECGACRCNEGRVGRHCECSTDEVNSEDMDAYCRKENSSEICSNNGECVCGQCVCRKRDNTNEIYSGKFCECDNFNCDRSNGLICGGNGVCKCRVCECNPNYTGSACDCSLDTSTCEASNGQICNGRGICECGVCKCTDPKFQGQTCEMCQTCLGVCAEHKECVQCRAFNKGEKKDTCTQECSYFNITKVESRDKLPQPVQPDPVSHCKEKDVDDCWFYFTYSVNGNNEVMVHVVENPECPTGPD

Binder | Kd
LAPGSFKGMK [Collagen alpha-6(IV) chain peptide 4] | 59.2 µM
DPGFPGMKGK [Collagen alpha-6(IV) chain peptide 30] | 19.7 µM
FKGTKGRDGL [Collagen alpha-6(IV) chain peptide 25] | 351 µM
GFQGEKGVKG [Collagen alpha-6(IV) chain peptide 5] | 790 µM
KGARGDRGSG [Collagen alpha-6(IV) chain peptide 10] | 47.3 µM
NKESGFPGLR [Collagen alpha-6(IV) chain peptide 8] | 1470 µM
GPPGSIVKKG [Collagen alpha-6(IV) chain peptide 19] | 2190 µM

From paper PMC8708666 (2021)
